Data from PMC8216282, “Structural basis for the dynamics of human methionyl-tRNA synthetase in multi-tRNA synthetase complexes” (Nucleic Acids Research, 2021).

Assays:
[1] = target: T1, extended GST domain of human MRS (MRS 1-224) (human, UniProt P56192 1-224); assay: crystal structure; MRS_(1-224)-AIMP3 complex crystallised in 20% PEG 8000, 0.1 M HEPES pH 7.5; molecular replacement; 2.0 A; details: both partners purified
T1 construct: methionyl-tRNA synthetase, cytosolic, human, residues 1-224 (GST domain and first part of the linker); also called MRSGST; source: recombinant, obtained as MRS_(1-224)-AIMP3 complex by co-purification
T1 sequence (looked up): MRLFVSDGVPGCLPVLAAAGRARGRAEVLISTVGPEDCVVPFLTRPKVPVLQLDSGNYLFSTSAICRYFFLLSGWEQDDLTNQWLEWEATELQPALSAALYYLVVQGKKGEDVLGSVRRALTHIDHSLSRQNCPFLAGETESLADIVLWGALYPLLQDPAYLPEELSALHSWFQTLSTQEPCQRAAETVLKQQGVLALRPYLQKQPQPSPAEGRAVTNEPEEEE

[2] = target: T2, human cytosolic methionyl-tRNA synthetase, full length (MRS 1-900) (human, UniProt P56192 1-900); assay: SEC; Superdex 200 10/300 column, Tris-HCl pH 7.5, 150 mM NaCl; molecular weights from a calibration curve of standards; details: both partners purified
T2 construct: methionyl-tRNA synthetase, cytosolic, human, residues 1-900 (900-residue protein); source: recombinant from pET30a or pQE80L plasmids, obtained as MRS-AIMP3 complex by co-purification
T2 sequence (looked up): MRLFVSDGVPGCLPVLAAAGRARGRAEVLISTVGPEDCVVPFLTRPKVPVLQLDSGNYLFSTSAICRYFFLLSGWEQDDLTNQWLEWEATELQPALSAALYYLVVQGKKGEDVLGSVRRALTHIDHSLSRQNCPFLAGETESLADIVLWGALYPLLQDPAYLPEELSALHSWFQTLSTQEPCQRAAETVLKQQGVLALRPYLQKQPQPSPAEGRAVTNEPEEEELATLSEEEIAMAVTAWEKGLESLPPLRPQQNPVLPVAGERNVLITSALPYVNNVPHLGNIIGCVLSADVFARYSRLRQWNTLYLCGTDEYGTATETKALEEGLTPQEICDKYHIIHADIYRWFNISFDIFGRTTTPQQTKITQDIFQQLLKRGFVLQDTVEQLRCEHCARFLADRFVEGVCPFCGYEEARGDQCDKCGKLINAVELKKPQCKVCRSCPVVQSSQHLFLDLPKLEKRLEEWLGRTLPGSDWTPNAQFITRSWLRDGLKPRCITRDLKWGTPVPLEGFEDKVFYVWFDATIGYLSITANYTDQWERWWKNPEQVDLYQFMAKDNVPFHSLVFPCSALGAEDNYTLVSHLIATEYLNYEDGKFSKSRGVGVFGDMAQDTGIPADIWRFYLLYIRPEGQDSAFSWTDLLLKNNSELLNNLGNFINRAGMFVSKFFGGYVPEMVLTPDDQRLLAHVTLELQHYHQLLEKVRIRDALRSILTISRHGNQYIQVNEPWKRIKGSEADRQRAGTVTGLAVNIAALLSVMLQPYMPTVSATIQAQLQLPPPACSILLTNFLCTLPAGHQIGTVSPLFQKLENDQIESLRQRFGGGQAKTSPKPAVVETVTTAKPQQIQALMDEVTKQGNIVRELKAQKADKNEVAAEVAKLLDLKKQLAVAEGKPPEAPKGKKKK

[3] = target: T3, human MRS without the C-terminal WHEP domain (MRS 1-834) (human, UniProt P56192 1-834); assay: as above; details: both partners purified
T3 construct: methionyl-tRNA synthetase, cytosolic, human, residues 1-834; source: E. coli BL21 (DE3), purified (Ni-NTA, size-exclusion chromatography); as complex with AIMP3
T3 sequence (looked up): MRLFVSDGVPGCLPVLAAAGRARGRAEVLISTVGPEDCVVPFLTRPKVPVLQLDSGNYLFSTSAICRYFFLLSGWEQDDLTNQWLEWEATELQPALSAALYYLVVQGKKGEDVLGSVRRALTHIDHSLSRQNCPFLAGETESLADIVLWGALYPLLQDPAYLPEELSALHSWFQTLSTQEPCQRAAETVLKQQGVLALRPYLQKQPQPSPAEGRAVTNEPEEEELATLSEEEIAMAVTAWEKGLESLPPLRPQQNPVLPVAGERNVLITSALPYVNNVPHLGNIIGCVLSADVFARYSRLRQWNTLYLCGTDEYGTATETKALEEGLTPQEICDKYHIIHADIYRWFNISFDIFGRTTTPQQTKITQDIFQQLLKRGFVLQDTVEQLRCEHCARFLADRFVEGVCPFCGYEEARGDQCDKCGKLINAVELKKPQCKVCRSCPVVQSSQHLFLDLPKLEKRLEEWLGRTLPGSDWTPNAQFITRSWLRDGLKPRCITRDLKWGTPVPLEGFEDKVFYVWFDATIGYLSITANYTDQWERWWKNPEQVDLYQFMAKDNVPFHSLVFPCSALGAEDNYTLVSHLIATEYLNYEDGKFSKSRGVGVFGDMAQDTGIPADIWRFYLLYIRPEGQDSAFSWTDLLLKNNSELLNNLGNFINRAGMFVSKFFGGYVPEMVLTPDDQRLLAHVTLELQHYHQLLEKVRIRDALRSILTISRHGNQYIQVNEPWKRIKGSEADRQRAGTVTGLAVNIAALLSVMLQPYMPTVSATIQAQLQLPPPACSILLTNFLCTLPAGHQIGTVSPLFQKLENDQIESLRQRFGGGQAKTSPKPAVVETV

[4] = target: T4, AIMP3 with the nanoluciferase large subunit at its N-terminus (LgBit-AIMP3) (human, UniProt O43324 1-174); assay: split reporter (BiFC, NanoBiT); NanoBiT; LgBit on the N- or C-terminus of AIMP3, SmBit on the N- or C-terminus of MRS or on AIMP3; co-expressed in CHO-K1 cells; luminescence measured with cell-permeable substrate; details: partners not purified
T4 construct: AIMP3, human; source: CHO-K1 cells, transfected, in live cells; not shown: LgBit (NanoLuc large subunit), N-terminal, kept
T4 sequence (looked up): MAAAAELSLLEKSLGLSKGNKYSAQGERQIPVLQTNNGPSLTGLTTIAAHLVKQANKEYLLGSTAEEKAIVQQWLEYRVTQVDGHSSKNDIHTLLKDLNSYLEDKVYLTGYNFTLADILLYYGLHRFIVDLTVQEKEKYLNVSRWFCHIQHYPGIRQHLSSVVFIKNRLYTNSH

Row | Binder | binding result [1] | binding result [2] | binding result [3] | fold increase of luciferase activity over background [4] [fold]
1 | AIMP3 (AARS-interacting multifunctional protein 3) (natural protein, human, AIMP3, human; 'Genes for full-length human MRS (residues 1-900) and AIMP3' were cloned; the earlier structure (PDB 4bvx) used AIMP3 1-169; source: recombinant from pET30a or pQE80L plasmids, co-purified with MRS or MRS_(1-224)) MAAAAELSLLEKSLGLSKGNKYSAQGERQIPVLQTNNGPSLTGLTTIAAHLVKQANKEYLLGSTAEEKAIVQQWLEYRVTQVDGHSSKNDIHTLLKDLNSYLEDKVYLTGYNFTLADILLYYGLHRFIVDLTVQEKEKYLNVSRWFCHIQHYPGIRQHLSSVVFIKNRLYTNSH | binds | binds | binds | 
2 | MRS with the nanoluciferase small subunit at its N-terminus (SmBit-MRS) (enzyme, human, UniProt P56192 1-900, looked up, methionyl-tRNA synthetase, cytosolic, human; source: CHO-K1 cells, transfected, in live cells; not shown: SmBit (NanoLuc small subunit), N-terminal, kept) MRLFVSDGVPGCLPVLAAAGRARGRAEVLISTVGPEDCVVPFLTRPKVPVLQLDSGNYLFSTSAICRYFFLLSGWEQDDLTNQWLEWEATELQPALSAALYYLVVQGKKGEDVLGSVRRALTHIDHSLSRQNCPFLAGETESLADIVLWGALYPLLQDPAYLPEELSALHSWFQTLSTQEPCQRAAETVLKQQGVLALRPYLQKQPQPSPAEGRAVTNEPEEEELATLSEEEIAMAVTAWEKGLESLPPLRPQQNPVLPVAGERNVLITSALPYVNNVPHLGNIIGCVLSADVFARYSRLRQWNTLYLCGTDEYGTATETKALEEGLTPQEICDKYHIIHADIYRWFNISFDIFGRTTTPQQTKITQDIFQQLLKRGFVLQDTVEQLRCEHCARFLADRFVEGVCPFCGYEEARGDQCDKCGKLINAVELKKPQCKVCRSCPVVQSSQHLFLDLPKLEKRLEEWLGRTLPGSDWTPNAQFITRSWLRDGLKPRCITRDLKWGTPVPLEGFEDKVFYVWFDATIGYLSITANYTDQWERWWKNPEQVDLYQFMAKDNVPFHSLVFPCSALGAEDNYTLVSHLIATEYLNYEDGKFSKSRGVGVFGDMAQDTGIPADIWRFYLLYIRPEGQDSAFSWTDLLLKNNSELLNNLGNFINRAGMFVSKFFGGYVPEMVLTPDDQRLLAHVTLELQHYHQLLEKVRIRDALRSILTISRHGNQYIQVNEPWKRIKGSEADRQRAGTVTGLAVNIAALLSVMLQPYMPTVSATIQAQLQLPPPACSILLTNFLCTLPAGHQIGTVSPLFQKLENDQIESLRQRFGGGQAKTSPKPAVVETVTTAKPQQIQALMDEVTKQGNIVRELKAQKADKNEVAAEVAKLLDLKKQLAVAEGKPPEAPKGKKKK |  |  |  | > 120
